The record followed here is publication PMC7353053, “Characterisation of the Effect of the Spatial Organisation of Hemicellulases on the Hydrolysis of Plant Biomass Polymer” (International Journal of Molecular Sciences, 2020).

Data set [1] addresses His-In-NpXyn11A-Jo-BhXyl43 (not stated | Neocallimastix patriciarum | Bacillus halodurans C-125). As to the kind of experiment: SAXS; proteins in 50 mM phosphate pH 7, around 10 mg/mL; direct injection and online SEC-HPLC curves merged; fit to the dimer of PDB 1YRZ or rigid body modelling; dimer to monomers.
For data set [2], the target named is His-In-NpXyn11A-BhXyl43-Jo (not stated | Neocallimastix patriciarum | Bacillus halodurans C-125). The description is as above.
For data set [3], the target named is His-BhXyl43 (Bacillus halodurans C-125). The data set is described as above.
Substrate in the data set “purified protein”: O=[N+]([O-])c1ccc(O[C@@H]2OC[C@@H](O)[C@H](O)[C@H]2O)cc1
As to the kind of experiment: purified protein. It is filed as biochemical, Halalkalibacterium halodurans. The note with it: 50 mM Tris-HCl pH 8, 1 mg/mL BSA, 45 °C, 10 min, 0.1 to 18 mM substrate.

For the molecule His-In-NpXyn11A-Jo-BhXyl43 (complex), the stoichiometry N (commonly the number of molecules, sites or subunits per partner or assembly) in data set [1] came out at 2.

On to His-In-NpXyn11A-BhXyl43-Jo (complex), for which the stoichiometry N in data set [2] stood at 2.

On to His-BhXyl43 (enzyme), for which, in data set [3], the stoichiometry N turned out to be 2.

B1: His-Jo-BhXyl43 (Halalkalibacterium halodurans C-125) (protein)
chain: MVNRIQNPILPGFHPDPSIVRVGDDYYIATSTFEWFPGVRIHHSRDLKHWRFVSSPLTRTSQLDMKGNMNSGGIWAPCLSYHDGTFYLIYTDVKQWHGAFKDAHNYLVTAQNIEGPWSDPIYLNSSGFDPSLFHDDDGRKWLVNMIWDYRKGNHPFAGIILQEYSEAEQKLVGPVKNIYKGTDIQLTEGPHLYKKDGYYYLLVAEGGTEYEHAATLARSQSIDGPYETDPSYPLVTSTGQPELALQKAGHGSLVETQNGEWYLAHLCGRPLKGKYCTLGRETAIQKVNWTEDGWLRIEDGGNHPLREVTAPDLPEHPFEKEPELDDFDAPQLHHQWNTLRIPADPSWCSLEERPGHLRLRGMESLTSVHSQSLVARRQQSFHCEVETKLEYQPESFQHMAGLVIYYDTEDHVYLHVTWHEEKGKCLQIIQTKGGNYDELLASPIPLAEEKAVYLKGRIHRETMHLYFKQEGEAEWQPVGPTIDVTHMSDDSAKQVRFTGTFVGMATQDLSGTKKPADFDYFRYKELDQ
notes: N-terminal His6 tag and Jo module (about 10 kDa, isopeptide-forming fragment) fused to the N-terminus of BhXyl43 (63 kDa); expressed in E. coli BL21(DE3), IMAC purified
In the case of B1, in “purified protein”, the Km – broadly, the substrate concentration at which the rate is half of its maximum – amounted to 6.01 ± 0.41 mM; the catalytic constant (kcat) (as a rule, the maximal rate divided by the concentration of active sites) came out at 18.1 ± 1.17 s⁻¹; the kcat/Km (usually the second-order rate constant that governs catalysis at low substrate concentration) stood at 3015 ± 10.9 M⁻¹ s⁻¹.
